Laboratory results taken from article PMC7736784.
Read-outs that look alike come from different tables or passages of the source.

What was measured:
[1] = molecular target: Sso7d-NanoLuc large fragment fusion
[2] = molecular target: Sso7d-NanoLuc large fragment fusion; remark: listed apart in the source

Row | Substance | Kd [1] | Kd [2]
1 | NS3 | 0.18 µM | 
2 | NS2-Stoffel fusion (NanoLuc small fragment NS2) |  | 190 µM
